B1: 46 (protein)
chain: MYSLAIRNGIVFDGEKFIGKTNIYVDGDKIVKITNERLDAKEEVNAEGYFVMPGLIDAHLHLTGIRGGSLLMGYLLDDPRTRLLRAANWARELLMAGFTTVRDCGEPNSIILRNAINEGIIPGPRIIAAGSPITQTFGHAELSHSLPLEWSIQLGFGEICDGVDECIKAARKVLRSGADFIKIMATGGVLSERDRPEWPQLTPEEMSAIVREAEKVGTYVAAHAHGDKGARIAVEAGVRTIEHGSLITEETVKLMAEKGVSLTPTLSIQELIYKHGKQMGIDPWGLEKIGQVREGVINSIKLARKYGVMILAGTDLGFKTGLDIDMGKNWVEVKLLVELGGLSSEEALRAATGNASKMLRLNTGIIREGYLADIVLINGNPLENINDIARVSTVIKGGKVTVENGKLI
modifications: exemplary polypeptide
B2: 36 (protein)
chain: MYSLAIRNGIVFDGEKFIGKTNIYVDGDKIVKITNERLDAKEEVNAEGYFVMPGLIDAHLHLTGARGGSLLMGYLLDDPRTRLLRAANWARELLMAGFTTVRDCGEPNSIILRNAINEGIIPGPRIIAAGSPITQTFGHAELSHSLPLEWSIQLGFGEICDGVDECIKAARKVLRSGADFIKIMATGGVLSERDRPEWPQLTPEEMSAIVREAEKVGTYVAAHAHGDKGARIAVEAGVRTIEHGSLITEETVKLMAEKGVSLTPTLSIQELIYKYGKQMGIDPWGLEKIGQVREGVINSIKLARKYGVMILAGTDLGFKTGLDIDMGKNWVEVKLLVELGGLSSEEALRAATGNASKMLRLNTGIIREGYLADIVLINGNPLENINDIARVSTVIKGGKVTVENGKLI
modifications: exemplary polypeptide
B3: 47 (protein)
chain: MYSLAIRNGIVFDGEKFIGKTNIYVDGDKIVKITNERLDAKEEVNAEGYFVMPGLIDAHLHLTGARGGSLLMGYLLDDPRTRLLRAANWARELLMAGFTTVRDCGGPNSIILRNAINEGIIPGPRIIAAGSAITQTFGHAELSHSLPLEWSIQLGFGEICDGVDECIKAARKVLRSGADFIKIMATGGVLSERDRPEWPQLTPEEMSAIVREAEKVGTYVAAHAHGDKGARIAVEAGVRTIEHGSLITEETVKLMAEKGVSLTPTLSAIELVYKVGKQMGIDPWGLEKIGQVREGVINSIKLARKYGVMILAGTDLGVKTGLDIDMGKNWVEVKLLVELGGLSSEEALRAATGNASKMLRLNTGIIREGYLADIVLINGNPLENINDIARVSTVIKGGKVTVENGKLI
modifications: exemplary polypeptide
B4: 37 (protein)
chain: MYSLAIRNGIVFDGEKFIGKTNIYVDGDKIVKITNERLDAKEEVNAEGYFVMPGLIDAHLHLTGIRGGSLLMGYLLDDPRTRLLRAANWARELLMAGFTTVRDCGGPNSIILRNAINEGIIPGPRIIAAGSPITQTFGHAELSHSLPLEWSIQLGFGEICDGVDECIKAARKVLRSGADFIKIMATGGVLSERDRPEWPQLTPEEMSAIVREAEKVGTYVAAHAHGDKGARIAVEAGVRTIEHGSLITEETVKLMAEKGVSLTPTLSIQELIYKYGKQMGIDPWGLEKIGQVREGVINSIKLARKYGVMILAGTDLGFKTGLDIDMGKNWVEVKLLVELGGLSSEEALRAATGNASKMLRLNTGIIREGYLADIVLINGNPLENINDIARVSTVIKGGKVTVENGKLI
modifications: exemplary polypeptide
B5: 38 (protein)
chain: MYSLAIRNGIVFDGEKFIGKTNIYVDGDKIVKITNERLDAKEEVNAEGYFVMPGLIDAHLHLTGIRGGSLLMGYLLDDPRTRLLRAANWARELLMAGFTTVRDCGSPNSIILRNAINEGIIPGPRIIAAGSPITQTFGHAELSHSLPLEWSIQLGFGEICDGVDECIKAARKVLRSGADFIKIMATGGVLSERDRPEWPQLTPEEMSAIVREAEKVGTYVAAHAHGDKGARIAVEAGVRTIEHGSLITEETVKLMAEKGVSLTPTLSIQELIYKYGKQMGIDPWGLEKIGQVREGVINSIKLARKYGVMILAGTDLGFKTGLDIDMGKNWVEVKLLVELGGLSSEEALRAATGNASKMLRLNTGIIREGYLADIVLINGNPLENINDIARVSTVIKGGKVTVENGKLI
modifications: exemplary polypeptide
B6: 35 (protein)
chain: MYSLAIRNGIVFDGEKFIGKTNIYVDGDKIVKITNERLDAKEEVNAEGYFVMPGLIDAHLHLTGGRGGSLLMGYLLDDPRTRLLRAANWARELLMAGFTTVRDCGEPNSIILRNAINEGIIPGPRIIAAGSPITQTFGHAELSHSLPLEWSIQLGFGEICDGVDECIKAARKVLRSGADFIKIMATGGVLSERDRPEWPQLTPEEMSAIVREAEKVGTYVAAHAHGDKGARIAVEAGVRTIEHGSLITEETVKLMAEKGVSLTPTLSIQELIYKYGKQMGIDPWGLEKIGQVREGVINSIKLARKYGVMILAGTDLGFKTGLDIDMGKNWVEVKLLVELGGLSSEEALRAATGNASKMLRLNTGIIREGYLADIVLINGNPLENINDIARVSTVIKGGKVTVENGKLI
modifications: exemplary polypeptide
B7: 51 (protein)
chain: MTTRTRILTAFLSLLAANACAADAAPAAPHTVVLRAARMFDGASGKLVDHPQLTIVGNKIVRIAQGDKAEVPAGAEVVDLGDATLLPGFIDAHVHLSGQSSDNWYGDFFDNMMRFPAEQALYGAYYARITLEAGFTSVRDVGSTDWVALGLRNAIDAGKVPGPRMLVSNYGVGSTGGHADQDPIPPHKLPLAGPLQGVCNGPEECRAAVRYQIKYGANVIKFMPSGGVLSLSDPVDAPELSQDEMNAVIGESHAWGRKVAAHAHGDKAAKMAVAAGVDSIEHGSFIEDDTLRAMKAKNVYLVPTISAIAHVEEKIGTFPPVIAEKGRAAAAHLRQTFRHAVQIGVPIALGTDAGVGAHGSNAREFRYMVENGLTPAQALLAGTANAARLLGTFDRVGTLEAGKLADVVAVPGNPIADITVTERPLFVMKDGVVVRRDAVR
modifications: exemplary polypeptide
B8: 52 (protein)
chain: MTTRTRILTAFLSLLAANACAADAAPAAPHTVVLRAARMFDGASGKLVDHPQLTIVGNKIVRIAQGDKAEVPAGAEVVDLGDATLLPGFIDAHVHLSGQSSDNWYGDFFDNMMRFPAEQALYGAYYARITLEAGFTSVRDVGSTDWVALGLRNAIDAGKVPGPRMLVSNYAVGSTGGHADQDGIPPHKLPLAGPLQGVCNGPEECRAAVRYQIKYGANVIKFMPSGGVLSLSDPVDAPELSQDEMNAVIGESHAWGRKVAAHAHGDKAAKMAVAAGVDSIEHGSFIEDDTLRAMKAKNVYLVPTISAIAHVEEKIGTFPPVIAEKGRAAAAHLRQTFRHAVQIGVPIALGTDAGVGAHGSNAREFRYMVENGLTPAQALLAGTANAARLLGTFDRVGTLEAGKLADVVAVPGNPIADITVTERPLFVMKDGVVVRRDAVR
modifications: exemplary polypeptide
B9: 53 (protein)
chain: MTTRTRILTAFLSLLAANACAADAAPAAPHTVVLRAARMFDGASGKLVDHPQLTIVGNKIVRIAQGDKAEVPAGAEVVDLGDATLLPGFIDAHVHLSGQSSDNWYGDFFDNMMRFPAEQALYGAYYARITLEAGFTSVRDVGSTDWVALGLRNAIDAGKVPGPRMLVSNYAVGSTGGHADQDSIPPHKLPLAGPLQGVCNGPEECRAAVRYQIKYGANVIKFMPSGGVLSLSDPVDAPELSQDEMNAVIGESHAWGRKVAAHAHGDKAAKMAVAAGVDSIEHGSFIEDDTLRAMKAKNVYLVPTISAIAHVEEKIGTFPPVIAEKGRAAAAHLRQTFRHAVQIGVPIALGTDAGVGAHGSNAREFRYMVENGLTPAQALLAGTANAARLLGTFDRVGTLEAGKLADVVAVPGNPIADITVTERPLFVMKDGVVVRRDAVR
modifications: exemplary polypeptide
B10: 54 (protein)
chain: MTTRTRILTAFLSLLAANACAADAAPAAPHTVVLRAARMFDGASGKLVDHPQLTIVGNKIVRIAQGDKAEVPAGAEVVDLGDATLLPGFIDAHVHLSGQSSDNWYGDFFDNMMRFPAEQALYGAYYARITLEAGFTSVRDVGSTDWVALGLRNAIDAGKVPGPRMLVSNYAVGSTGGHADQDPIPPHKLPLAGPLQGVCNGPEECRAAVRYQIKYGANVIKFMPSGGALSLSDPVDAPELSQDEMNAVIGESHAWGRKVAAHAHGDKAAKMAVAAGVDSIEHGSFIEDDTLRAMKAKNVYLVPTISAIAHVEEKIGTFPPVIAEKGRAAAAHLRQTFRHAVQIGVPIALGTDAGVGAHGSNAREFRYMVENGLTPAQALLAGTANAARLLGTFDRVGTLEAGKLADVVAVPGNPIADITVTERPLFVMKDGVVVRRDAVR
modifications: exemplary polypeptide

Key:
[1] = OTA detoxification activity assay (specific activity, fluorescence reduction ex/em 390/450 nm); type: biochemical; settings: for Specific OTA detoxification activities in % compared to the enzyme of SEQ ID NO: 2, pH 6.0 / Specific OTA detoxification activities in % compared to the enzyme of SEQ ID NO: 2, pH 7.5: SEQ ID NO: 2 = 100%; for Specific OTA detoxification activities in % compared to the enzyme of SEQ ID NO: 1, pH 6.0 / Specific OTA detoxification activities in % compared to the enzyme of SEQ ID NO: 1, pH 7.5: SEQ ID NO: 1 = 100%
In short: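 Recombinant enzyme preparation with 200 ng/mL OTA in 100 mM sodium phosphate, at pH 6.0 and pH 7.5, 37° C. Degradation followed as the fall in fluorescence at ex/em 390/450 nm. Specific activity taken from the initial linear slope; one unit degrades 1 μmol OTA per min at a starting OTA of […].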

[2] = Thermostability assay: residual OTA detoxification activity after 10 min incubation at 45-99° C. (T50); type: physicochemical; settings: 0.1 mg/mL protein in 20 mM Tris-HCl pH 7.5, residual OTA detoxification activity relative to 4° C. reference aliquot
In short: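 T50 marks the temperature range at which half the starting OTA-detoxifying activity is lost, versus an unheated 4 °C reference. Samples were 0.1 mg/mL purified protein in 20 mM Tris-HCl pH 7.5, exposed for 10 min to 45, 55, 65, 75, 80, 85, 90, 95 or 99 °C.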

Molecule	Specific OTA detoxification activities in % compared to the enzyme of SEQ ID NO: 2, pH 6.0 [1]	Specific OTA detoxification activities in % compared to the enzyme of SEQ ID NO: 2, pH 7.5 [1]	T50 (temperature at which 50% of the initial activity was maintained) [2]	Specific OTA detoxification activities in % compared to the enzyme of SEQ ID NO: 1, pH 6.0 [1]	Specific OTA detoxification activities in % compared to the enzyme of SEQ ID NO: 1, pH 7.5 [1]
B1	82.00%	66.00%	>99 °C		
B2	117.00%	309.00%	99 °C		
B3	85.00%	267.00%	>99 °C		
B4	42.00%	187.00%	>99 °C		
B5	11.00%	53.00%	>99 °C		
B6	56.00%	136.00%	99 °C		
B7			68-70 °C	46%	140%
B8			<63.2 °C	16%	44%
B9			<63.2 °C	64%	100%
B10			<63.2 °C	33%	40%
